From the RNAGym collection of RNA variant scans (doi:10.1093/molbev/msab373)

B1: Azoarcus group I ribozyme (parent)
chain: GUGCCUUGCGCCGGGAAACCACGCAAGGGAUGGUGUCAAAUUCGGCGAAACCUAAGCGCCCGCCCGGGCGUAUGGCAACGCCGAGCCAAGCUUCGGCGCCUGCGCCGAUGAAGGUGUAGAGACUAGACGGCACCCACCUAAGGCAAACGCUAUGGUGAAGGCAUAGUCCAGGGAGUGGCGAAAGUCACACAAACCGG

Variants of: B1
Test: reverse-splicing fitness (ratio to wild type); higher = more active; in vitro selection; Mg2+ level not given
Outline: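 An in vitro group I ribozyme library with randomized positions was T7-transcribed and gel-purified. In triplicate, 10 pmol RNA in EPPS pH 7.5 was reacted with 50 pmoles of a 30-nt RNA substrate for 1 h at 37 °C across several added MgCl2 levels (1–48 mM), then stopped with EDTA. Products were reverse transcribed from a substrate-complementary primer, PCR-amplified and sequenced (HiSeq 4000). Fitness is a variant's read proportion after selection over that before, normalised to wild type.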

Point of comparison: C82G A120C A145U C150A, reverse-splicing fitness 0.0209. Against it:
- C82G A120C A145G — higher, 0.21
- C82G A120C A145G C169A — lower, 0.0105
- C82G A120C A145G C169U — higher, 0.0256
- C82G A120C A145G C169G — lower, 0.00863
- C82G A120C A145U C150A C169U — lower, 0.00929
- C82G A120C A145U C150A C169A — lower, 0.00989
- C82G A120C A145U C150A C169G — lower, 0.00739
- C82G A120C A145C C150A C169A U176A — lower, 0.0154
- C82G A120C A145C C150A C169A U176G — lower, 0.00522
- C82G A120C A145C C150A C169A U176C — lower, 0.00645
- C82G A120C A145C C150G C169U U176G — lower, 0.00406
- C82G A120C A145C C150G C169U U176C — lower, 0.0116
- C82G A120C A145C C150G C169U U176A — lower, 0.00765
- C82G A120G A145C — higher, 0.0276
- C82G A120C A145G C169A U176C — higher, 0.0247
- C82G A120C A145G C169A U176G — lower, 0.00477
- C82G A120C A145G C169A U176A — the same, 0.0209
- C82G A120C A145C C169U U176G — lower, 0.00352
- C82G A120C A145C C169U U176C — lower, 0.0142
- C82G A120C A145C C169U U176A — lower, 0.0152
- C82G A120C A145G C150G C169G U176G — lower, 0.00667
- C82G A120C A145G C150G C169G U176A — lower, 0.0134
- C82G A120C A145G C150G C169G U176C — lower, 0.0134
- C82G A120C A145U C150G C169U U176A — lower, 0.00813
- C82G A120C A145U C150G C169U U176G — lower, 0.00547
- C82G A120C A145U C150G C169U U176C — lower, 0.012
- C82G A120C C169G U176G — lower, 0.00385
- C82G A120C C169G U176A — lower, 0.0172
- C82G A120C C169G U176C — lower, 0.0176
- C82G A120C A145C C150A C169U U176A — lower, 0.0134
- C82G A120C A145C C150A C169U U176G — lower, 0.0044
- C82G A120C A145C C150A C169U U176C — lower, 0.0101
- C82G A120C A145G C150U C169G U176C — lower, 0.0205
- C82G A120C A145G C150U C169G U176G — lower, 0.00538
- C82G A120C A145G C150U C169G U176A — lower, 0.0139
- C82G A120G A145C C169A — higher, 0.0237
- C82G A111U C169U U176G — lower, 0.00639
- C82G A111U C169U U176A — lower, 0.0177
- C82G A111U C169U U176C — lower, 0.0158
- C82G A120G A145C C150G U176A — lower, 0.00713
- C82G A120G A145C C150G U176G — lower, 0.00333
- C82G A120G A145C C150G U176C — lower, 0.00894
- C82G A120G A145C C150U U176C — lower, 0.00922
- C82G A120G A145C C150U U176A — lower, 0.00928
- C82G A120G A145C C150U U176G — lower, 0.00485
- C82G A120C A145U C150G U176G — lower, 0.00444
- C82G A120C A145U C150G U176C — lower, 0.0164
- C82G A120C A145U C150G U176A — lower, 0.00942
- C82G A120C C150U C169A — lower, 0.0121
- C82G A120C C150U C169U — lower, 0.0173
- C82G A120C C150U C169G — lower, 0.00822
- C82G A120C C150G U176A — lower, 0.00858
- C82G A120C C150G U176G — lower, 0.00413
- C82G A120C C150G U176C — lower, 0.0138
- C82G A120C A145G C150A U176C — higher, 0.034
- C82G A120C A145G C150A U176A — lower, 0.0196
- C82G A120C A145G C150A U176G — lower, 0.0102
- C82G A120C A145G C150G C169A U176A — lower, 0.0143
- C82G A120C A145G C150G C169A U176C — lower, 0.0145
- C82G A120C A145G C150G C169A U176G — lower, 0.00912
- C82G A120C A145G C150A C169A U176G — lower, 0.00671
- C82G A120C A145G C150A C169A U176A — higher, 0.0227
- C82G A120C A145G C150A C169A U176C — higher, 0.0236
- C82G A111U C150U C169U — lower, 0.0118
- C82G A120C A145C C150U C169U U176C — lower, 0.00971
- C82G A120C A145C C150U C169U U176A — lower, 0.0146
- C82G A120C A145C C150U C169U U176G — lower, 0.00439
- C82G A120C — higher, 0.208
- C82G A120G — higher, 0.029
- C82G A120C A145C C150G C169A U176G — lower, 0.00496
- C82G A120C A145C C150G C169A U176A — lower, 0.0101
- C82G A120C A145C C150G C169A U176C — lower, 0.00752
- C82G A120C A145G C150A C169G U176C — higher, 0.0256
- C82G A120C A145G C150A C169G U176A — lower, 0.0184
- C82G A120C A145G C150A C169G U176G — lower, 0.0054
- C82G A120C C150G C169A — lower, 0.00942
- C82G A120C C150G C169G — lower, 0.00797
- C82G A120C C150G C169U — lower, 0.0121
- C82G A120G A145C C150U C169U U176A — lower, 0.0184
- C82G A120G A145C C150U C169U U176C — lower, 0.0138
- C82G A120G A145C C150U C169U U176G — lower, 0.00404
- C82G A120C A145U C150G — lower, 0.0201
- C82G A120C A145U C150U — higher, 0.11
